The values below come from patent US20210188909A1 (SANFORD BURNHAM PREBYS MEDICAL DISCOVERY INSTITUTE, published 2021).

One assay concerns the target T1, BSA (UniProt P02769 25-607).
T1 construct: Control protein on beads
Briefly: T7 phage clone binding to protein-coated magnetic beads.

For assay [1], the target named is T2, ligand-binding b1b2 domain of the cell and tissue penetration receptor NRP-1 (UniProt O14786 273-586, limits assumed).
T2 construct: domain: b1b2; Coated on magnetic beads; also called NRP-1 b1b2; NRP-1 b1b2 domain
T2 sequence (looked up): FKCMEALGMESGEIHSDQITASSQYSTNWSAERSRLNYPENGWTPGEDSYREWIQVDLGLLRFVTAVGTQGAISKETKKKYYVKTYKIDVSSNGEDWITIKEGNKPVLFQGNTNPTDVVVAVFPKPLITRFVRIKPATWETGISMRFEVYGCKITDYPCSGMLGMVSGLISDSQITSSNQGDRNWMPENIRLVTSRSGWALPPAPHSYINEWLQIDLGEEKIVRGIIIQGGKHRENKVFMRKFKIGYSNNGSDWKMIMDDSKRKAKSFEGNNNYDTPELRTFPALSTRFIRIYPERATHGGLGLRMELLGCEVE
The assay is described as above.

For assay [2], the target named is T3, recombinant 6x-His-tagged p32 protein (gC1qR/p32) (UniProt Q07021 74-282).
T3 construct: Predominantly (>97%) a trimer by sedimentation velocity; also called gC1q/p32 receptor; recombinant p32
T3 sequence (looked up): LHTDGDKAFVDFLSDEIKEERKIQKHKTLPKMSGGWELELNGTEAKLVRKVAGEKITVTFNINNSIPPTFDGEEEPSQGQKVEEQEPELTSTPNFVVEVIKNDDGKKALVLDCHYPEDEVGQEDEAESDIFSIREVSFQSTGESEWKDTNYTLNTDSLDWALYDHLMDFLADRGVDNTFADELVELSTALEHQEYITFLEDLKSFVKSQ
The assay is described as follows: T7 phage binding to immobilized p32; reference LyP-1-displaying phage.

Assay [3] deals with T3, recombinant 6x-His-tagged p32 protein …. Briefly: T7 phage clone binding to immobilized p32 (FIG. 3).
Assay [4] concerns the target T4, NRP-1 (control protein in the fluorescence polarization assay) (UniProt O14786 273-586, limits assumed).
T4 construct: also called neuropilin-1
T4 sequence (looked up): T2 sequence (looked up)
The assay is described as follows: fluorescence polarization assay with synthetic peptide, NRP-1 as control protein. For orientation: Fluorescence polarisation rises when a labelled molecule tumbles more slowly, as on binding a larger partner.

Assay [5] concerns the target T2, ligand-binding b1b2 domain of the cell …. Briefly: uPA-treated T7 phage binding to NRP-1 b1b2; reference untreated phage.

Ends that are not written are not given here.

T1 sequence (P02769 25-607 limits assumed): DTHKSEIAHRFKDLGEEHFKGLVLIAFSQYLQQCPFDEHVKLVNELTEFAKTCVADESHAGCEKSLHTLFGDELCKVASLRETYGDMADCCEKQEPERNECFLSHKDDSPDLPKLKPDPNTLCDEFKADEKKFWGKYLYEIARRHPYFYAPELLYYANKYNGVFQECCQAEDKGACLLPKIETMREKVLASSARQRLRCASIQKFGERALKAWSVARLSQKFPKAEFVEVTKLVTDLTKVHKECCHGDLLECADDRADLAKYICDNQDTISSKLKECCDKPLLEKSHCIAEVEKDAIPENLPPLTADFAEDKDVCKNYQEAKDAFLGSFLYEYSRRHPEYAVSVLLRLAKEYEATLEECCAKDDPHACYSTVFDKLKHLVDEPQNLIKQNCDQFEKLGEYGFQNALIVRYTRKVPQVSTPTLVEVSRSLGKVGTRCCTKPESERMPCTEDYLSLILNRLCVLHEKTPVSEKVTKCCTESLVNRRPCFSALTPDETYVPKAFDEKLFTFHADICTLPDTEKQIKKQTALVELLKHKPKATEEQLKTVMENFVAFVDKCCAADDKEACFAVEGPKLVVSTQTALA

B1: T7 phage displaying the TT1 peptide CKRGARSTC (SEQ ID NO: 3) (peptide)
peptide: CKRGARSTC
notes: The phage protein it is fused to is not described; also called TT1 phage; TT phage
In the case of B1, the binding result (with BSA; in assay [1]) was “no binding” each time. Further, the “fold stronger phage binding than the LyP-1 peptide” value in assay [2] was approximately 15 fold.

B2: T7 phage displaying SGVSRDR (SEQ ID NO: 191) (peptide)
peptide: SGVSRDR
notes: also called phage clone selected on NRP-1 b1b2 domain
Turning to B2, the binding result in assay [3] was “no binding”.

B3: T7 phage displaying SMNEVRKR (SEQ ID NO: 192) (peptide)
peptide: SMNEVRKR
notes: as for B2
Take B3: the binding result in assay [3] was “no binding”.

B4: synthetic TT1 Peptide CKRGARSTC (SEQ ID NO: 3), cyclic (peptide)
peptide: CKRGARSTC
modifications: also: cyclic (CycTT1), ring type not given here, used labeled and unlabeled, label and position not given here
notes: Free synthetic peptide used in fluorescence polarization assays; also called CycTT1; cyclic TT1 Peptide
In the case of B4, the binding result in assay [4] is “no binding”.

B5: T7 phage displaying RMRRIDR (SEQ ID NO: 190) (peptide)
peptide: RMRRIDR
notes: as for B2
As for B5, the binding result in assay [3] is recorded as “no binding”.

B6: uPA-treated T7 phage displaying the TT1 peptide (peptide)
peptide: CKRGAR
modifications: not fully specified
notes: not shown: T7 phage capsid (display carrier)
For B6, the “fold enhancement of binding” value in assay [5] was 180 fold.

B7: T7 phage displaying CTRGSRSKC (SEQ ID NO: 177) (peptide)
peptide: CTRGSRSKC
modifications: not fully specified (bridges); cysteine pairing not given here; also: displayed on T7 phage
notes: also called RGXRS-displaying phage
B7: the binding result (in the assay with BSA; in assay [1]) was “no binding” in each case. On to RKRGGRS (also called RGXRS-displaying phage) [T7 phage displaying RKRGGRS (SEQ ID NO: 166)], for which the binding result (in the assay with BSA; in assay [1]) was “no binding” each time.

B8: T7 phage displaying CARGKRSLC (SEQ ID NO: 184) (peptide)
peptide: CARGKRSLC
modifications: not fully specified (bridges); cysteine pairing not given here; also: displayed on T7 phage
notes: as for B7
B8: the binding result (in the assay with BSA; in assay [1]) was “no binding” throughout.

B9: T7 phage displaying CKRGSRSSC (SEQ ID NO: 181) (peptide)
peptide: CKRGSRSSC
modifications: not fully specified (bridges); cysteine pairing not given here; also: displayed on T7 phage
notes: as for B7
In the case of B9, the binding result (with BSA; in assay [1]) was “no binding” each time.

B10: T7 phage displaying CARGARTKC (SEQ ID NO: 176) (peptide)
peptide: CARGARTKC
modifications: not fully specified (bridges); cysteine pairing not given here; also: displayed on T7 phage
notes: carries RGART rather than RGXRS
For the molecule B10, the binding result in assay [1] was “no binding”.

B11: T7 phage displaying CQRGTRSRC (SEQ ID NO: 182) (peptide)
peptide: CQRGTRSRC
modifications: not fully specified (bridges); cysteine pairing not given here; also: displayed on T7 phage
notes: as for B7
As for B11, the binding result (with BSA; in assay [1]) was “no binding” in each case.

B12: T7 phage displaying CKRGNRSVC (SEQ ID NO: 178) (peptide)
peptide: CKRGNRSVC
modifications: not fully specified (bridges); cysteine pairing not given here; also: displayed on T7 phage
notes: as for B7
On to B12, for which the binding result (with BSA; in assay [1]) was “no binding” in each case.

B13: T7 phage displaying GRGGRSRKLAAALE (SEQ ID NO: 161) (peptide)
peptide: GRGGRSRKLAAALE
notes: the C-terminal KLAAALE element is encoded by the phage genomic DNA; also called RGXRS-displaying phage
B13: the binding result (in the assay with BSA; in assay [1]) was “no binding” each time.

B14: T7 phage displaying SRLGRMR (SEQ ID NO: 193) (peptide)
peptide: SRLGRMR
notes: as for B2
With B14, the binding result in assay [3] was “no binding”.

B15: T7 phage displaying CVRGGRARC (SEQ ID NO: 183) (peptide)
peptide: CVRGGRARC
modifications: not fully specified (bridges); cysteine pairing not given here; also: displayed on T7 phage
notes: carries RGGRA rather than RGXRS
Regarding B15, the binding result in assay [1] is “no binding”.
